Assay results taken from the supplement of paper PMC11780869.

Tested on: Bacillus subtilis
Test: cleaved RNA product abundance (RNA/gDNA barcode ratio) relative to median wild-type variant (ratio to wild type); higher = more accumulation of the downstream cleavage product
Outline: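 Reporter mRNAs (truncated aprE or tetM) carrying barcoded, mutagenized RNase Y cleavage-site windows were made from oligos with a 9% error rate and integrated into the B. subtilis chromosome. Cultures grew in LB at 37°C from OD600 0.0003 to 0.3. Cleaved RNA was gel-selected, reverse transcribed and barcode-sequenced alongside genomic DNA barcodes, with UMI collapsing. Cleaved product abundance is the RNA:gDNA barcode ratio per variant, scaled to the median wild-type variant.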

[1] = experiment (reporter, strain, medium): exp 2b: truncated aprE reporter, strain BJT200, cleavage site: cggR-gapA (positions -7 to +36 mutated)
[2] = experiment (reporter, strain, medium): exp 4a: truncated aprE reporter, strain BJT201 with 2% xylose (RNase J1 expressed), cleavage site: cggR-gapA (positions -7 to +36 mutated)
[3] = experiment (reporter, strain, medium): exp 8a: truncated aprE reporter, strain BJT201 with 2% xylose (RNase J1 expressed), cleavage site: glnRA (positions -5 to +31 mutated)

Sequence: ACAGACGAAGGAGCCGCAAAGAAGTTATTAAGGCATGAATAATCCCTTAATATAAATATCTCTCACTTATTTAAA
- cleaved RNA product abundance [1]: 0.411
- cleaved RNA product abundance [2]: 0.291

Sequence: ACAGACGAAGGAGCCGCAAAGAAGTTATTAAGGCATGAATAATCCCTCAATATATATATCTCTCACTTATTTAAA
- cleaved RNA product abundance [1]: 0.106
- cleaved RNA product abundance [2]: 0.11

Sequence: ACAGACGAAGGAGCCGCAAAGAAGTTATTAAGGGTTGAACAATCCCTCAATATAAATATCTCTCACTTATTTAAA
- cleaved RNA product abundance [1]: 0.387

Sequence: CGACATGTCCCGCTTCTTTCATTAATCCGTTAGCAACTGTATTTCTATATACATTTACCTTTTAAGAGGAGGAAT
- cleaved RNA product abundance [3]: 0.506

Sequence: CGACATGTCCCGCTTCTTTCATTATTCCGTTAGCAACTCTTTTGCTATATACATTTACCTTTTAAGAGGAGGAAT
- cleaved RNA product abundance [3]: 2.3

Sequence: CGACATGTCCCGCTTCTTTCATTAATCCGTTAGAATCTGTTTTGCTATATACATTTACCTTTTAAGAGGAGGAAT
- cleaved RNA product abundance [3]: 0.239

Sequence: ACAGACGAAGGAGCCGCAAAGTAGTTATTAATGGATGAATAATCCCTCAATATAAATATCTCTCACTTATTTAAA
- cleaved RNA product abundance [1]: 0.0916
- cleaved RNA product abundance [2]: 0.166

Sequence: CGACATGTCCCGCTTCTTTCATTAATCCGTTAGCAACTGTTTTTCTATATAGATTTACCTTTTAAGAGGAGGAAT
- cleaved RNA product abundance [3]: 0.925

Sequence: ACAGACGAAGGAGCCGCAAAGAAGTTATTAAGGGATGAATAATTCCTCTATATAAATATCTCTCACTTATTTAAA
- cleaved RNA product abundance [2]: 0.248

Sequence: ACAGACGAAGGAGCCGCATAGAAGTTATTAAGGGATGAATAATGCCTCAATATAAATATCTCTCACTTATTTAAA
- cleaved RNA product abundance [2]: 0.141

Sequence: ACAGACGAAGGAGCCGCAAAGAACTTATTAAGGGATGAATAATCCCTGAATATAAATATCTCTCACTTATTTAAA
- cleaved RNA product abundance [1]: 0.264
- cleaved RNA product abundance [2]: 0.213

Sequence: CGACATGTCCCGCTTCTTTCATTAATCAGTTAGCAACTGTTTTGCTATATACATTTATCTTTTAAGAGGAGGAAT
- cleaved RNA product abundance [3]: 0.854

Sequence: ACAGACGAAGGAGCCGCAAAGAAGTTATTAAGGGATGAATAAGCCCTCAAGATAAATATCTCTCACTTATTTAAA
- cleaved RNA product abundance [2]: 0.176

Sequence: CGACATGTCCCGCTTCTTTCATTAATCGGTTAGAAACTGTTTTGCTATATACATTTACCTTTTAAGAGGAGGAAT
- cleaved RNA product abundance [3]: 0.222

Sequence: ACAGACGAAGGAGCCGCAAAGAAGTTATTAAGGGATGAATAATCCCTTAATATAAATATTTCTCACTTATTTAAA
- cleaved RNA product abundance [2]: 0.494

Sequence: ACAGACGAAGGAGCCGCAAAGAAGTAATTAAGGGATGAATAATCCCTCAGTATAAATATCTCTCACTTATTTAAA
- cleaved RNA product abundance [2]: 0.0878

Sequence: ACAGACGAAGGAGCCGCAAAGAAGTTATCAAGGAATGAATAATCCCTCAATATAAATATCTCTCACTTATTTAAA
- cleaved RNA product abundance [2]: 0.11

Sequence: ACAGACGAAGGAGCCGCAAAGAAGTTATTAACGGATGAATAATCCCACAATATAAATATCTCTCACTTATTTAAA
- cleaved RNA product abundance [2]: 0.133

Sequence: CGACATGTCCCGCTTCTTTCATTAATCCCTTAGCAACTGATTTGCTATATACATTTACCTTTTAAGAGGAGGAAT
- cleaved RNA product abundance [3]: 0.25

Sequence: CGACATGTCCCGCTTCTTTCATTAATCAGTTAGCAACTGTTTTGCTATATAAATTTACCTTTTAAGAGGAGGAAT
- cleaved RNA product abundance [3]: 0.682

Sequence: ACAGACGAAGGAGCCGCAAAGATGTTATTAATGGATGAATAATCCCTCAATATAAATATCTCTCACTTATTTAAA
- cleaved RNA product abundance [1]: 0.131
- cleaved RNA product abundance [2]: 0.135

Sequence: CGACATGTCCCGCTTCTTTCATTAATCTGTTAGCAACTGTTTTGCTTTATACATTTACCTTTTAAGAGGAGGAAT
- cleaved RNA product abundance [3]: 0.247

Sequence: ACAGACGAAGGAGCCGCAAAGAAGTTATTAATGGATGAATAATCCCTCAATATAAATTTCTCTCACTTATTTAAA
- cleaved RNA product abundance [1]: 0.112
- cleaved RNA product abundance [2]: 0.138

Sequence: CGACATGTCCCGCTTCTTTCATTAATCCGTTAGCAACTATTTTGCTTTATACATTTACCTTTTAAGAGGAGGAAT
- cleaved RNA product abundance [3]: 0.459

Sequence: ACAGACGAAGGAGCCGCAAAGATGTTATTAAGGAATGAATAATCCCTCAATATAAATATCTCTCACTTATTTAAA
- cleaved RNA product abundance [1]: 0.102
- cleaved RNA product abundance [2]: 0.145

Sequence: ACAGACGAAGGAGCCGCAAATAAGTTATTAACGGATGAATAATCCCTCAATATAAATATCTCTCACTTATTTAAA
- cleaved RNA product abundance [1]: 0.113
- cleaved RNA product abundance [2]: 0.157

Sequence: ACAGACGAAGGAGCCGCAAAGAAGTCATTAAGGGATGATTAATCCCTCAATATAAATATCTCTCACTTATTTAAA
- cleaved RNA product abundance [2]: 0.217

Sequence: ACAGACGAAGGAGCCGCAAAAAAGTTATTAAGGGATGAATATTCCCTCAATATAAATATCTCTCACTTATTTAAA
- cleaved RNA product abundance [1]: 0.665
- cleaved RNA product abundance [2]: 0.566

Sequence: CGACATGTCCCGCTTCTTTCATTAATCAGGTAGCAACTGTTTTGCTATATACATTTACCTTTTAAGAGGAGGAAT
- cleaved RNA product abundance [3]: 0.783

Sequence: CGACATGTCCCGCTTCTTTCATTAATCCGTTATCAACTGTTTTGCTAAATACATTTACCTTTTAAGAGGAGGAAT
- cleaved RNA product abundance [3]: 0.237

Sequence: ACAGACGAAGGAGCCGCAAATAAGTTATTAAGGGATGAATAATCCCTCAACATAAATATCTCTCACTTATTTAAA
- cleaved RNA product abundance [2]: 0.401

Sequence: ACAGACGAAGGAGCCGCAAAGAAGTCATAAAGGGATGAATAATCCCTCAATATAAATATCTCTCACTTATTTAAA
- cleaved RNA product abundance [2]: 0.198

Sequence: CGACATGTCCCGCTTCTTTCATTATTCCGTTAGCAACTGTTATGCTATATACATTTACCTTTTAAGAGGAGGAAT
- cleaved RNA product abundance [3]: 0.76

Sequence: ACAGACGAAGGAGCCGCAAAGAAGTTAATAAGGGATGAATAATCGCTCAATATAAATATCTCTCACTTATTTAAA
- cleaved RNA product abundance [2]: 0.0788

Sequence: CGACATGTCCCGCTTCTTTCATTAATCCGTTATCAACTGTTTTGCTATAAACATTTACCTTTTAAGAGGAGGAAT
- cleaved RNA product abundance [3]: 0.182

Sequence: ACAGACGAAGGAGCCGCAAAAAAGTTAGTAAGGGATGAATAATCCCTCAATATAAATATCTCTCACTTATTTAAA
- cleaved RNA product abundance [2]: 0.374

Sequence: ACAGACGAAGGAGCCGCAAAGAAGTTATGAAGGGATTAATAATCCCTCAATATAAATATCTCTCACTTATTTAAA
- cleaved RNA product abundance [1]: 0.402
- cleaved RNA product abundance [2]: 0.476

Sequence: ACAGACGAAGGAGCCGCAAAGAAGTTATTAAGTAATAAATAATCCCTCAATATAAATATCTCTCACTTATTTAAA
- cleaved RNA product abundance [2]: 0.0519

Sequence: ACAGACGAAGGAGCCGCAAAGAAGTTATTAAGAGACGAATAATCCCTCAATATAAATATCTCTCACTTATTTAAA
- cleaved RNA product abundance [1]: 0.0781
- cleaved RNA product abundance [2]: 0.0728

Sequence: CGACATGTCCCGCTTCTTTCATTAATCCGTTAGTAAATGTTTTGCTATATACATTTACCTTTTAAGAGGAGGAAT
- cleaved RNA product abundance [3]: 0.205

Sequence: ACAGACGAAGGAGCCGCCAAGAAGTTATTAAGGAATGAATAATCCCTCAATATAAATATCTCTCACTTATTTAAA
- cleaved RNA product abundance [2]: 0.107

Sequence: ACAGACGAAGGAGCCGCAAAGAACTTATTAAGGGATGAAAAATCCCTCAATATAAATATCTCTCACTTATTTAAA
- cleaved RNA product abundance [2]: 0.521

Sequence: CGACATGTCCCGCTTCTTTCATTAATCCTTTAGCAACTGTTTTGCTATATACAGTTACCTTTTAAGAGGAGGAAT
- cleaved RNA product abundance [3]: 0.604

Sequence: ACAGACGAAGGAGCCGCAAAGAAGTTATTAAGGGATGAATAATCCCTTAATATACATATCTCTCACTTATTTAAA
- cleaved RNA product abundance [2]: 0.232

Sequence: ACAGACGAAGGAGCCGCAAAAAAGTTATTAAGGGATGAATAATCCCTCTATATAAATATCTCTCACTTATTTAAA
- cleaved RNA product abundance [2]: 0.613

Sequence: ACAGACGAAGGAGCCGCAAAGAAGTTATTAAGGGATCAATGATCCCTCAATATAAATATCTCTCACTTATTTAAA
- cleaved RNA product abundance [2]: 1.15

Sequence: CGACATGTCCCGCTTCTTTCATTAATCCGTTAGCAGCTGTTTTGCTATATACATTTACCTTTTAAGAGGAGGAAT
- cleaved RNA product abundance [3]: 0.754

Sequence: ACAGACGAAGGAGCCGCAAAGAAGTAATTCAGGGATGAATAATCCCTCAATATAAATATCTCTCACTTATTTAAA
- cleaved RNA product abundance [2]: 0.325

Sequence: ACAGACGAAGGAGCCGCAAAAAAGCTATTAAGGGATGAATAATCCCTCAATATAAATATCTCTCACTTATTTAAA
- cleaved RNA product abundance [1]: 0.392
- cleaved RNA product abundance [2]: 0.855

Sequence: ACAGACGAAGGAGCCGCAAAGAAGTTATTATGGGATGAATAATCCCTCATTATAAATATCTCTCACTTATTTAAA
- cleaved RNA product abundance [2]: 0.528

Sequence: ACAGACGAAGGAGCCGCAAAGAAGTTATTAAGGGATGTATAATCCCTCAATATAAATCTCTCTCACTTATTTAAA
- cleaved RNA product abundance [2]: 0.82

Sequence: ACAGACGAAGGAGCCGCATAGAAGTTATTAAGGGATGAATAATCTCTCAATATAAATATCTCTCACTTATTTAAA
- cleaved RNA product abundance [1]: 1.08

Sequence: ACAGACGAAGGAGCCGCAAAGAAGTTATTAAGGGTTGTATAATCCCTCAATATAAATATCTCTCACTTATTTAAA
- cleaved RNA product abundance [2]: 0.309

Sequence: ACAGACGAAGGAGCCGCAAAGAAGTTATTAAGGCATGAATACTCCCTCAATATAAATATCTCTCACTTATTTAAA
- cleaved RNA product abundance [2]: 0.072

Sequence: ACAGACGAAGGAGCCGCAAAGAAGTTATTAAGGGAGAAATAATCCCTCAATATAAATATCTCTCACTTATTTAAA
- cleaved RNA product abundance [2]: 0.795

Sequence: ACAGACGAAGGAGCCGCAAGGAAGTTATTAAGGGATGATTAATCCCTCAATATAAATATCTCTCACTTATTTAAA
- cleaved RNA product abundance [2]: 0.959
